From patent publication US20220333113
Numbering of substitutions follows the chain as printed.

Experiments:
Assay in all cases: filter
Settings in all cases: J = PPdU at every J; SB18T0.01 + 1 mM DTT, 37 C
[1] = target: T1, RIG-I K858A (Homo sapiens) (UniProt O95786)
T1 sequence: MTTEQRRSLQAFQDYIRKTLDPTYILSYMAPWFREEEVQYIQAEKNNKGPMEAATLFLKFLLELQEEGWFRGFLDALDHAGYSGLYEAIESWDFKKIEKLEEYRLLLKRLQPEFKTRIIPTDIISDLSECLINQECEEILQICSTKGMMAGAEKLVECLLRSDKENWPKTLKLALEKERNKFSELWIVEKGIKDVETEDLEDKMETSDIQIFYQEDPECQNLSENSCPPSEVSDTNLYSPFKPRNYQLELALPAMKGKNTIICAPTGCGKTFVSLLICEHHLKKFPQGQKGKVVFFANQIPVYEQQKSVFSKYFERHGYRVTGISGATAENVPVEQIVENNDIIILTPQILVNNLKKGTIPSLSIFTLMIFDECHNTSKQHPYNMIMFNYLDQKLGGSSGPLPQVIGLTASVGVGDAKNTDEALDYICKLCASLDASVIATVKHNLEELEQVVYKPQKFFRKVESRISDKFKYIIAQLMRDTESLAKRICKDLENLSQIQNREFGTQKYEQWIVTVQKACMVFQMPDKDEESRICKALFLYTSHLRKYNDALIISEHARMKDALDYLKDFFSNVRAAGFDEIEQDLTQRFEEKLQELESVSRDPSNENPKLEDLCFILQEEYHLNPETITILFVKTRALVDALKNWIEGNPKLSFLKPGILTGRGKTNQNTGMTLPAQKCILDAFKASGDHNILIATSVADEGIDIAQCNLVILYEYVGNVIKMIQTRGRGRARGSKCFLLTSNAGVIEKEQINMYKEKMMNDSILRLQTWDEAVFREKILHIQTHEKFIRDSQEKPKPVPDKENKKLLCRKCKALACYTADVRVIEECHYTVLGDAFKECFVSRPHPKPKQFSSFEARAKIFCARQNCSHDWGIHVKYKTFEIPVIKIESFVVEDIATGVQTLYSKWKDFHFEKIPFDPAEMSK

[2] = target: T2, RIG-I K849A (Homo sapiens) (UniProt O95786)
T2 sequence: T1 sequence with K849A, A858K

[3] = target: T3, RIG-I H847A (Homo sapiens) (UniProt O95786)
T3 sequence: T1 sequence with H847A, A858K

With “ATCTCTGTGTCATGTGTTTTAATGTCAGTTTAATGATGAGG [14832-55_8]” the Kd [1] was 2.9 nM, the Kd [2] was 0.62 nM and the Kd [3] was 9.9 nM.
